Assay results from patent publication US20220003777A1 (Stanford University, published 2022).

Target: T1, Secreted Protease of C1 Esterase Inhibitor (StcE), recombinant N-terminal His-tagged (Escherichia coli O157:H7, UniProt O82882 36-898)
T1 construct: also called mucinase
T1 sequence: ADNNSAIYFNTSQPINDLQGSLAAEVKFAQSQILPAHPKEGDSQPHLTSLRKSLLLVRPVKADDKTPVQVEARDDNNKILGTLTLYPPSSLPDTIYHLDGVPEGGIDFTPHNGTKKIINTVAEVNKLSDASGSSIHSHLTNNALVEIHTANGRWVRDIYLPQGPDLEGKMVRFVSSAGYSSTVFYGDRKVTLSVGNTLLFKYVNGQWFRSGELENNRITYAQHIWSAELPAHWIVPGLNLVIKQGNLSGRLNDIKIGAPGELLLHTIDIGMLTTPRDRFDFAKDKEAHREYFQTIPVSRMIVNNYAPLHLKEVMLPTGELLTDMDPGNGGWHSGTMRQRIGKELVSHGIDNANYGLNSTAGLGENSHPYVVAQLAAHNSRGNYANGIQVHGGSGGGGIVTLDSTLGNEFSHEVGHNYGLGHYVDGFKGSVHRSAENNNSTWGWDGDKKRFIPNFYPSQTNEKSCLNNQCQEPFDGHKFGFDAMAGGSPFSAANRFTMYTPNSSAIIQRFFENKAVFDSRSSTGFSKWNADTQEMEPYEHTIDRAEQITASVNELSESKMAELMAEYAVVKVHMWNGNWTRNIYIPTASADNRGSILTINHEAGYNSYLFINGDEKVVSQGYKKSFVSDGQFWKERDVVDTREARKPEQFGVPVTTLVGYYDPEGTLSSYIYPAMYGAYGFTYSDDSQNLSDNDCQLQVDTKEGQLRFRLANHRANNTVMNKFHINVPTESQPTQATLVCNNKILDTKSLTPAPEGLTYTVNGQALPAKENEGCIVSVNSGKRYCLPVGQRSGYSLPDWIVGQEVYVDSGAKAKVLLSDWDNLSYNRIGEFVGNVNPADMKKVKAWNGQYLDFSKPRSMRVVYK
Test: pull-down with StcE conjugated to POROS AL beads, EDTA present, silver stain

B1: C1 esterase inhibitor, human plasma-derived (other)
chain: NPNATSSSSQDPESLQDRGEGKVATTVISKMLFVEPILEVSSLPTTNSTTNSATKITANTTDEPTTQPTTEPTTQPTIQPTQPTTQLPTDSPTQPTTGSFCPGPVTLCSDLESHSTEAVLGDALVDFSLKLYHAFSAMKKVETNMAFSPFSIASLLTQVLLGAGENTKTNLESILSYPKDFTCVHQALKGFTTKGVTSVSQIFHSPDLAIRDTFVNASRTLYSSSPRVLSNNSDANLELINTWVAKNTNNKISRLLDSLPSDTRLVLLNAIYLSAKWKTTFDPKKTRMEPFHFKNSVIKVPMMNSKKYPVAHFIDQTLKAKVGQLQLSHNLSLVILVPQNLKHRLEDMEQALSPSVFKAIMEKLEMSKFQPTLLTLPRIKVTTSQDMLSIMEKLEFFDFSYDLNLCGLTEDPDLQVSAMQHQTVLELTETGVEAAAASAISVARTLLVFEVQQPFLFVLWDQQHKFPVFMGRVYDPRA
notes: Printed as C11NH throughout (OCR of C1INH); Native glycosylated protein; also called C11NH; C1-INH
binding result: binds
